# Results published in article PMC4659945, “X-ray structure and activities of an essential Mononegavirales L-protein domain” (Nature Communications, 2015).
# Biological target: the molecule itself
# Test: crystal structure; CR-VI+ crystals, space group P2_(1)2_(1)2_(1), two molecules in the asymmetric unit; vapour diffusion at 20.5 °C, PGA-HT screen C11 (pH 6.5) with 0.1 M guanidine hydrochloride
protein,measurement,value
"CR-VI+ domain of human metapneumovirus (hMPV) L protein (domain or fragment, disulphide between C1877 of the two copies, L protein (large RNA polymerase) of human metapneumovirus isolate 00-1, GenBank AF371337.2, residues 1599-2005 (CR-VI ~1616-1883 and +domain 1884-2005); synthetic gene, codon optimised for Sf cells; The text calls it a 406-residue fragment, but 1599-2005 counts 407 residues; A selenomethionine form was used for phasing; The construct was also expressed in HEK293T and BL21 Star; crystals came from …) NALLTPIPSPMVNLTQVIDPTEQLAYFPKITFERLKNYDTSSNYAKGKLTRNYMILLPWQHVNRYNFVFSSTGCKVSLKTCIGKLMKDLNPKVLYFIGEGAGNWMARTACEYPDIKFVYRSLKDDLDHHYPLEYQRVIGELSRIIDSGEGLSMETTDATQKTHWDLIHRVSKDALLITLCDAEFKDRDDFFKMVILWRKHVLSCRICTTYGTDLYLFAKYHAKDCNVKLPFFVRSVATFIMQGSKLSGSECYILLTLGHHNNLPCHGEIQNSKMKIAVCNDFYAAKKLDNKSIEANCKSLLSGLRIPINKKELNRQRRLLTLQSNHSSVATVGGSKVIESKWLTNKANTIIDWLEHILNSPKGELNYDFFEALENTYPNMIKLIDNLGNAEIKKLIKVTGYMLVSKK",stoichiometry N,2
